Key:
[1] = biological target: T1, recombinant JCV VP1 protein (Mad1 strain, Abcam ab74569) (JC virus, Mad1 strain, UniProt P03089 1-354); test: method not stated
T1 construct: also called recombinant VP1 from Mad1 strain; VP1/JCV

bovine serum albumin = biological target: T2, bovine serum albumin (bovine, UniProt P02769 25-607); test: ELISA with crude Fab preparations
T2 construct: also called BSA

[2] = biological target: T3, recombinant BKV VP1 protein (Abcam ab74567) (BK virus, UniProt P03088 1-362); test: ELISA on recombinant JCV VP1 and recombinant BKV VP1
T3 sequence: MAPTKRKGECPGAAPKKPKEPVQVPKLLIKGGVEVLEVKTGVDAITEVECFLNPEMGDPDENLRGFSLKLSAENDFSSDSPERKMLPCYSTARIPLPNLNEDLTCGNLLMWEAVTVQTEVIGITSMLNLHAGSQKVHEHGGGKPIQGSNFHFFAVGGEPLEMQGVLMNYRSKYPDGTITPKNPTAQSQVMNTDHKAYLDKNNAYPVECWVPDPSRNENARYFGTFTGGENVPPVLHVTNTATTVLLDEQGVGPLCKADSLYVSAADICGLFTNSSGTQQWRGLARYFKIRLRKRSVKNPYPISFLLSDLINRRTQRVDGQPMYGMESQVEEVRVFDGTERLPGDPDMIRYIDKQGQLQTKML

T1 sequence (P03089 whole entry): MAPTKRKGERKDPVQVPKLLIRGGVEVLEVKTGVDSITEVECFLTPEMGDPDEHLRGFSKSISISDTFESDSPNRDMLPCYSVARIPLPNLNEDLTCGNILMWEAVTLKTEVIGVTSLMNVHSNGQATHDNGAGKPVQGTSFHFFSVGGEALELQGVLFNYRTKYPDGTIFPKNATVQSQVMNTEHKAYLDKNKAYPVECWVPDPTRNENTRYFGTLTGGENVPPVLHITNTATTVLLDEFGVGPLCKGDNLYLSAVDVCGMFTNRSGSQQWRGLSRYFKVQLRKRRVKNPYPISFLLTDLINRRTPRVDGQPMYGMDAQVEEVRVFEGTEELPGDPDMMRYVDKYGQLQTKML
T2 sequence (P02769 25-607 limits assumed): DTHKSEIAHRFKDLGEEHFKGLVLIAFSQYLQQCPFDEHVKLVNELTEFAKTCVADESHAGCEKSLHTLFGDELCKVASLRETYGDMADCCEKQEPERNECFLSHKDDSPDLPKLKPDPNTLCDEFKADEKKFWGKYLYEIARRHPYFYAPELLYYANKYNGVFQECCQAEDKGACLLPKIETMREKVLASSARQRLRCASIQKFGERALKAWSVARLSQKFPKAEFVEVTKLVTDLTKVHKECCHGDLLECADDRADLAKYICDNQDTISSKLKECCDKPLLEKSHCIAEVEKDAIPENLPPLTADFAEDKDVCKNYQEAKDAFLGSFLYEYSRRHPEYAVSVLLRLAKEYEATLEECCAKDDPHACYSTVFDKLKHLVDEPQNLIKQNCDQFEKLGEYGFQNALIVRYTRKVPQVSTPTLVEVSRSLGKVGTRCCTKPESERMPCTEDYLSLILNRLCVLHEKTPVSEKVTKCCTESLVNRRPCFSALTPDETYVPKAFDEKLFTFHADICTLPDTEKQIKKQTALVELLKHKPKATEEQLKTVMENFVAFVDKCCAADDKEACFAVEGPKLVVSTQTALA

B1: GRE1 human anti-JCV VP1 monoclonal antibody (Fab, V domains shown)
VH: WGPGLVKPSQSLSLTCAVSGASVSSGINYWSWIRLYPGKGLEWIGYVYSSGTTYYNPSLKSRVSISLDTSKNQFSLNLRSVTAADTAVYYCARDRGDSSGSSYYKYYMDVWGKGTTVTVSS
VL: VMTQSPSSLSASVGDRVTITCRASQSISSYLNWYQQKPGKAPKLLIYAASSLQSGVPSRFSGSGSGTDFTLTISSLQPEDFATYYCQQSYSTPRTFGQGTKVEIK
notes: also called IgG GRE; JCV-GRE1
B1 was tested, and the Kd [1] was roughly 1 nM, the binding result (bovine serum albumin) was “no binding” and the binding result [2] was “no binding”.
